# Publication PMC7382241, “Genomic discovery of an evolutionarily programmed modality for small-molecule targeting of an intractable protein surface” (Proceedings of the National Academy of Sciences of the …, 2020)
# B1: CEP250_(11.4) (residues 2,134 to 2,231) (domain or fragment, human, UniProt Q9BV73 2134-2231, looked up)
# chain: MEEQSLKLDSLEPRLQRELERLQAALRQTEAREIEWREKAQDLALSLAQTKASVSSLQEVAMFLQASVLERDSEQQRLQDELELTRRALEKERLHSPG
# notes: human CEP250 residues 2,134 to 2,231; forms a homodimeric coiled coil in the crystal; tags not specified in the main text; Tags are in SI Materials and Methods; also called 11.4 kDa degradation product of CEP250; source: E. coli BL21(DE3)pLysS
# Target: the molecule itself
# Experiment: crystal structure; CEP250_(11.4) with three-molar excess of FKBP12 and nine-molar excess of WDB002, ternary complex isolated by SEC; crystals in 0.1 M Hepes 7.0, 0.2 M sodium malonate, 21% PEG 3350
protein,measurement,value
B1,stoichiometry N,2
